This test has as its target T1, peptide containing GA-pyridine (Biotin-Gly-Ala-Gly-(GA-pyridine)-Gly-Ala-CONH2).
T1 chain: GAGXGA
Description: SPR (Biacore T200), peptide immobilised on sensor chip SA, 25 C.

Usually Kd stands for a measure of binding affinity in units of concentration. Read a high Kd as a looser complex.

B1: cyclic Y9-scFv cyclized by sortase (scFv)
scFv: GGGSHMAQVKLQQSGPSLVKPSQTLSLTCSVTGDSITSGYWNWIRKFPGNKFEYLGYISYSGRTYYNPSLKSRISITRDTSKNQYYLQLNSVTTEDTATYYCSRPYYRYDYAIDYWGQGTTVTVSSGGGGSGGGGSGGGGSDIELTQSPAIMSASLGEQVTMTCTASSSVSSSYLHWYQQKPGSSPKLWIYSTSNLASGVPARFSSSGSGTSYSLTISRMEAEDAATYYCQQSWKAPYTFGGGTKLEIKRAAAGTHHHHHHLPET
modifications: not checked
As for B1, the Kd came out at 16.1 nM.

For the origin of these results see patent US20210388112A1.
